The values that follow come from PMC4964276.

Where only a bound is given, the exact number is not on record here.

Experiment [1] addresses AKAP18β 30-mer peptide, Ala67 to aspartate (human). The experiment in a line: peptide or protein array.
Experiment [2] has as its target AKAP18β 30-mer peptide, Val60 to aspartate (human). The experiment in a line: peptide or protein array.
The target of experiment [3] is AKAP18β 30-mer peptide, Ala63 to aspartate (human). The experiment in a line: peptide or protein array.
The target in experiment [4] is AKAP18β 30-mer peptide, Val64 to aspartate (human). The experiment in a line: peptide or protein array.
Another experiment addresses PKA RIIα (Homo sapiens) (UniProt P13861). The experiment in a line: SPR. The following applies: cited from earlier work.

As usually defined, the Kd is the concentration at which binding is half-saturated.

Chain of RIIα subunits, recombinant, radioactively labelled (32P) (P13861 whole entry): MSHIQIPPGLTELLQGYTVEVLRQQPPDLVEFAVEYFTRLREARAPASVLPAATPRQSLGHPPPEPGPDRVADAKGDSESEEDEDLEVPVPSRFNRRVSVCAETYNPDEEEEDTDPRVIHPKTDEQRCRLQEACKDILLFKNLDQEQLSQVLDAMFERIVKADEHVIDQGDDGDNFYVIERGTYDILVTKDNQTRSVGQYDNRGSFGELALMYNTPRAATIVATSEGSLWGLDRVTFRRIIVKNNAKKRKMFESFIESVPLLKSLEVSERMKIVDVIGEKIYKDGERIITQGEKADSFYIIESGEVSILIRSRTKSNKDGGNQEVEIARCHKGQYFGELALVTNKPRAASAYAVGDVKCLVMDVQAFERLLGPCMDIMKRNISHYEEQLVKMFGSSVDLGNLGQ
Chain of PKA RIIα (Homo sapiens) (P13861 2-404): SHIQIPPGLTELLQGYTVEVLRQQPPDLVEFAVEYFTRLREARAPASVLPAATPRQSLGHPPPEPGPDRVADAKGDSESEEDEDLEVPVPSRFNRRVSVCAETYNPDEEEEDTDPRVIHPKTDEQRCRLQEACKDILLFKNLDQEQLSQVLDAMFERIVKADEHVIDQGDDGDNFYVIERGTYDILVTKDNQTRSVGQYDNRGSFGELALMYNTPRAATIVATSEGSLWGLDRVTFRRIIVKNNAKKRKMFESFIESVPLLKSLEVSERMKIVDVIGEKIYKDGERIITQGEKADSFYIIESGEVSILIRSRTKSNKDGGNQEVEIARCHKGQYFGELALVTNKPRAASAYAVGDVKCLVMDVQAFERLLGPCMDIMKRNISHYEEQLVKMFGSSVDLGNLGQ
Chain of AKAP18δ PKA-binding domain peptide PKA-binding domain (25 aa) (Q9P0M2 295-319, stated change not applied): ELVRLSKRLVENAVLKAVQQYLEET

On to “RIIα subunits, recombinant, radioactively labelled (32P) (from UniProt P13861 1-404) (natural protein)”, for which the reduction of binding (% against the wild-type peptide) in experiment [1], in experiment [2], in experiment [3] and in experiment [4] was greater than 60% in each case.
Consider “AKAP18δ PKA-binding domain peptide PKA-binding domain (25 aa) (from UniProt Q9P0M2)”, for which the Kd with PKA RIIα (Homo sapiens) is 0.4 nM.
